The source of these data is publication PMC6989608.

This assay concerns the target Recombinant PP99 gp55 tail spike protein (Pectobacterium phage PP99). As to the kind of experiment: SEC; gel-filtration of purified PP99 gp55 on a calibrated Superdex 200 10 x 300 column; oligomeric state.

As for “Recombinant PP99 gp55 tail spike protein (natural protein)”, the stoichiometry N is 3.
